The data set relates to live HeLa cells. The conditions noted are these: 8 µM Flu-HBS 3, HeLa cells, 2.5 hours, fixed, Z-section fluorescence microscopy.

The values that follow come from paper PMC3312813 (Nature chemical biology, 2011).

Regarding `CC[C@H](C)[C@H](NC(=O)CN1C/C=C/CCC(=O)N[C@@H](Cc2ccccc2)C(=O)N[C@@H](CCC(=O)O)C1=O)C(=O)N[C@@H](Cc1ccc(O)cc1)C(=O)N[C@@H](CCCNC(=N)N)C(=O)N[C@@H](CC(C)C)C(=O)N[C@@H](CCC(=O)O)C(=O)N[C@@H](CC(C)C)C(=O)N[C@@H](CC(C)C)C(=O)N[C@@H](CCCCN)C(=O)N[C@@H](C)C(=O)N[C@@H](CCC(=O)O)C(=O)N[C@@H](CCC(=O)O)C(=O)N[C@@H](C)C(=O)N[C@@H](CC(N)=O)C(=O)N[C@@H](CCCCNC(=O)c1ccc2c(c1)C(=O)OC21c2ccc(O)cc2Oc2cc(O)ccc21)C(N)=O` [Flu-HBS 3], the “Cellular uptake at 4 °C as compared to 37 °C” value was “significantly reduced”.
